The source of these data is the DeepSol protein solubility set.

This data set in a line: soluble on expression in E. coli; label from the status in PepcDB or PDB records.
For the sequence “MGSDKIHHHHHHMYFELKENRPHGTPENPFSQYHISDVKRAFQIPVHWHDELEIIYVKQGKLHVTISGENYIGSPKDAFVVSPGSLHLMGSPTGDADYYTFLFPLEYISFQTDDLMEKSILSPLKRGRLMISPQINDTAADICERLIEINEQISGKNAEKTDAANIEAQFETKITLIKFIRKMWRNGLILENGTNGTNTTEKEMITYIRQNYTREISLKEFGAQFHLSEKYISRYFKEHFHITLSQYVNHLRLEHARQLLEESTASVTEVAMCSGYQNVSYFIRSFKKMYGVSPLKYRNFQTLP”, the “soluble on expression in E. coli” value was “not soluble”. The same measure for “GSHMLEDPQRRIRRPFSVAEVEALVQAVEKLGTGRWRDVKLCAFEDADHRTYVDLKDKWKTLVHTAKISPQQRRGEPVPQELLNRVLNAHGYWTQQQMQQLQQNV”: “soluble”; for “FGQYLAIRRTDALLRQQLDTLTIDTLSELEGKLPVKSNSLVIAYIRRVLESKDRPAHVQRLLADFEITADKDLAISKTLTKMGP”: “not soluble”; for “MPLVSVVMPVYNSAATLGAAVRSVLTQTHGDLELLVTDDQSSDGSMDLLREFAAQDERVLPRSSPERGGAGRARNLAIERARGDYVAFLDSDDMWLPEKTEKQLAFAAEGTAPLTFTSYFKMDADHDGESTDWVPNGRVIRAREHVDYRAMLVQDHIGALTAMYDRNVLGTRLMPEMRKRQDYALWLSIMRDGADARGLAEPLAVYRAHQAGSLSSNKLSLVEYNWALYREHENLSVPRATRALAGAVWQSLRNSRILEHHHHHH”: “not soluble”. The same measure for “MSVPDKFFGRYQLDKSENFDEFLSSKGVNWFVRQMIKLAGLTKIISQNQEAGKYNMENLTSKKNTNYQAWELGKKFEAPGLDGNQHEITFDFKDEILSEHHIRLNEPETSAETYFYTIDDQNQLVMRMENNGIVCRRWFKRVEQK”: “not soluble”; for “MSLSMLAVAATALATFAIAPAQAQAEKPKDKVTLMLNWYLYSEHATFFLGKEKGFYAEEGIDLGIQEGRGSAVTAQAVAAKSATFGYIDVTTMIKAAAKGAPLKSTGVLFQVSPMSVMGLSEKNIATPKDIIGKTVAVTPGDSMSQMWPLFLKVNDIRPDQVKVVSGDGQTKLNAVANGQADLLLGYVMDQAIKLQDATGKPVTPIRFADSGVNQISSGIITHKNLLTENPDLVKRFMRASTKAAEAAEKSPEAAVDAMLKAHPKAGVRDTLIVGMKQSVALYHTQETANQRPFRVAMKNVNDSLDLLEGHHHHHH”: “not soluble”.

Turning to “MSILVTRPSPAGEELVSRLRTLGQVAWHFPLIEFSPGQQLPQLADQLAALGESDLLFALSQHAVAFAQSQLHQQDRKWPRLPDYFAIGRTTALALHTVSGQKILYPQDREISEVLLQLPELQNIAGKRALILRGNGGRELIGDTLTARGAEVTFCECYQRCAIHYDGAEEAMRWQAREVTMVVVTSGEMLQQLWSLIPQWYREHWLLHCRLLVVSERLAKLARELGWQDIKVADNADNDALLRALQLEHHHHHH”, the “soluble on expression in E. coli” value is given as “not soluble”. The same measure for “MKKFLTQVFTWWNGQTLGTRFHTWRKGERVGEDEFGNVYYQGGKDSEGRTRRWVIFNGYSEASTIPPGWHGWMHHRVDTPPSKEDYRPREWQKPHLQNLTGSPLAYRPKGSIALPGAQPAERPRVTGEYDAWTPGNLEHHHHHH”: “not soluble”; for “MSLSQIAVRTFHDIRAALLARRELALLDVREEDPFAQAHPLFAANLPLSRLELEIHARVPRRDTPITVYDDGEGLAPVAAQRLHDLGYSDVALLDGGLSGWRNAGGELFRDVNVPSKAFGELVEAERHTPSLAAEEVQALLDARAEAVILDARRFDEYQTMSIPGGISVPGAELVLRVAELAPDPRTRVIVNCAGRTRSIIGTQSLLNAGIPNPVAALRNGTIGWTLAGQQLEHGQTRRFGAISQDTRKAAAQRARAVADRAGVERLDLAGLAQWQDEHDRTTYLLDVRTPEEYEAGHLPGSRSTPGGQLVQETDHVASVRGARLVLVDDDGVRANMSASWLAQMGWQVAVLDGLSEADFSERGAWSAPLPRQPRADTIDPTTLADWLGEPGTRVLDFTASANYAKRHIPGAAWVLRSQLKQALERLGTAERYVLTCGSSLLARFAVAEVQALSGKPVFLLDGGTSAWVAAGLPTEDGESLLASPRIDRYRRPYEGTDNPREAMQGYLDWEFGLVEQLGRDGTHGFFVIEGGSHHHHHH”: “soluble”; for “MAHHHHHHMLNRSRLRRVWLGGTAANTSLGRDVMPSTGKYINIVSPTDVAANISAGAMPPEANVAAALPVPRIQYSKWNRALRSDVYDELLKLPLRYKLHDFAKLCPPQRCQEEPEAVGVVGRDSAVGYLPPLGPADPLDTIPFFVHRSSNGVLPGKVFSMHPRNLMPAFYLRIQQVEGDMFRFEEELLKIFPTKKIFVRSHSIYVYNVALDGRMVLHHWLLGLGF”: “not soluble”.

Take “MDYNVKDFGALGDGVSDDRASIQAAIDAAYAAGGGTVYLPAGEYRVSAAGEPGDGCLMLKDGVYLAGAGMGETVIKLIDGSDQKITGMVRSAYGEETSNFGMRDLTLDGNRDNTSGKVDGWFNGYIPGGDGADRDVTIERVEVREMSGYGFDPHEQTINLTIRDSVAHDNGLDGFVADYLVDSVFENNVAYANDRHGFNVVTSTHDFVMTNNVAYGNGSSGLVVQRGLEDLALPSNILIDGGAYYDNAREGVLLKMTSDITLQNADIHGNGSSGVRVYGAQDVQILDNQIHDNAQAAAVPEVLLQSFDDTAGASGTYYTTLNTRIEGNTISGSANSTYGIQERNDGTDYSSLIDNDIAGVQQPIQLYGPHSTVSGEP”: the “soluble on expression in E. coli” value is “soluble”. The same measure for “AETEKEKQDWIEAVQQSIAETLSDYEVAEKIWFNESNRSCADCKAPDPDWASINLCVVICKKCAGQHRSLGPKDSKVRSLKMDASIWSNELIELFIVIGNKRANDFWAGNLQKDEELHMDSPVEKRKNFITQKYKEGKFRKTLLASLTKEELNKALCAAVVKPDVLETMALLFSGADVMCATGDPVHSTPYLLAKKAGQSLQMEFLYHNKFSDFPQHDIHSEGVLSQESSQSTFLCDFLYQAPSAASKLSSEKKLLEETNKKWCVLEGGFLSYYENDKSTTPNGTININEVICLAIHKEDFYLNTGPIFIFEIYLPSERVFLFGAETSQAQRKWTEAIAKHFVPLFAENLTEADYDLIGQLFYKDCHALDQWRKGWFAMDKSSLHFCLQMQEVQGDRMHLRRLQELTISTMVQNGEKLDVLLLVEKGRTLYIHGHTKLDFTVWHTAIEKAAGTDGNALQDQQLSKNDVPIIVNSCIAFVTQYGLGCKYIYQKNGDPLHISELLESFKKDARSFKLRAGKHQLEDVTAVLKSFLSDIDDALLTKELYPYWISALDTQDDKERIKKYGAFIRSLPGVNRATLAAIIEHLYRVQKCSEINHMNAHNLALVFSSCLFQTKGQTSEEVNVIEDLINNYVEIFEVKEDQVKQMDIENSFITKWKDTQVSQAGDLLIEVYVERKEPDCSIIIRISPVMEAEELTNDILAIKNIIPTKGDIWATFEVIENEELERPLHYKENVLEQVLRWSSLAEPGSAYLVVKRFLTADTIKHCSDRSTLGSIKEGILKIKEEPSKILSGNKFQDRYFVLRDGFLFLYKDVKSSKHDKMFSLSSMKFYRGVKKKMKPPTSWGLTAYSEKHHWHLCCDSSQTQTEWMTSIFIAQHEYDIWPPAGKERKRSITKNPKIGGLPLIPIQHEGNATLARKNIESARAELERLRLSEKCDKESVDSSLKERASMVAHCLEHKDDKLRNRPRKHRSFNCLEDTEPEAPLGQPKGHKGLKTLRKTEDRNSKATLDSDHKLPSRVIEELNVVLQRSRTLPKELQDEQILK”: “soluble”; for “MADQYHEPVSELTGKDRDFVRALNSLKEEIEAVAWYHQRVVTTKDETVRKILEHNRDEEMEHAAMLLEWLRRNMPGWDEALRTYLFTDKPITEIEEETSGGSENTGGDLGIRKL”: “soluble”; for “MRALRRGKGITLKQLAKALNKNISRGEAKNTESQIGNWERGERNPNYLEVKKLADYFDVSIDYLVGRYNNDQVDLAKAMITSSKLTYNDTPLDNNDKYEILQLISGYLHARGRRSTGDLININHQESLDLFNNQNDF”: “not soluble”. The same measure for “MDPIASVLEKVKSFTKSSQDLVSRHFGFHENPSRLNPIDILKRLQRETFSDLMKLRERQEKVERIISSQKLSKGGPFQETSTHVRGEVDVLGAILLMGNTDEESFNGLNKEGVRPGLLSRFVFETSLRETDRLVAELVAGYNGAGSHRDFLGGELSLAKVFYKADINDWFSAIAIPVGAHFRDIEASTVSSYQGMSLTEVSELGPPLLSQHNGSAIGLTFRKSNITASLAQSMSNVEVEQGLTAPNRCFRTFGQVTCHILRSLKLSLLGCHQVLTSSSNLHSVGAITVPVSFLRRHTATEPEPSAPPLEMSRNMNHVSSSSIALKLDSLMDESTKLGGWIEIQNSREKQVKWSVSITDNPEDEVGWGMSVGGVVDGSRNHDQFQVESYLKFNIGDRFRLSPCLVYHTNSDGRTIGLMLKSHWSL”: “soluble”.

On to “MYAALFPGQGSHRVGMGRALYEASPAAKEVLDRAEAALPGLLKLMWEGPEEALTLTENQQPALLAAGYAAYRAFLEAGGKPPALPEGHSLGEWTAHVAAGTLELEDALRLVRLRGRYMQEAVPVGEGAMAAVLKLPLEEIQKALEGLEGVEIANLNAPEQTVISGRRQAVEEAAERLKERRARVVFLPVSAPFHSSLMAPARKRLAEDLAQVPLRRPRFPVYSNVTARPEEDPERIRALLLEQITAPVRWVEILRDMEARGVKRFLEFGSGEVLKGLVLRTLKEAEALSVQDPDSLRKALEVERA”, for which the “soluble on expression in E. coli” value is reported as “soluble”.

As to “MRGSHHHHHHTDPALRANSLFASTARGLEELLKTELENLGAVECQVVQGGVHFKGDTRLVYQSLMWSRLASRIMLPLGECKVYSDLDLYLGVQAINWTEMFNPGATFAVHFSGLNDTIRNSQYGAMKVKDAIVDAFTRKNLPRPNVDRDAPDIRVNVWLHKETASIALDLSGDGLHLRGYRDRAGIAPIKETLAAAIVMRSGWQPGTPLLDPMCGSGTLLIEAAMLATDRAPGLHRGRWGFSGWAQHDEAIWQEVKAEAQTRARKGLAEYSSHFYGSDSDARVIQRARTNARLAGIGELITFEVKDVAQLTNPLPKGPYGTVLSNPPYGERLDSEPALIALHSLLGRIMKNQFGGWNLSLFSASPDLLSCLQLRADKQYKAKNGPLDCVQKNYHVAESTPDSKPAMVAEDYTNRLRKNLKKFEKWARQEGIECYRLYDADLPEYNVAVDRYADWVVVQEYAPPKTIDAHKARQRLFDIIAATISVLGIAPNKLVLKTRERQKGKNQYQKLGEKGEFLEVTEYNAHLWVNLTDYLDTGLFLDHRIARRMLGQMSKGKDFLNLFSYTGSATVHAGLGGARSTTTVDMSRTYLEWAERNLRLNGLTGRAHRLIQADCLAWLREANEQFDLIFIDPPTFSNSKRMEDAFDVQRDHLALMKDLKRLLRAGGTIMFSNNKRGFRMDLDGLAKLGLKAQEITQKTLSQDFARNRQIHNCWLITAAGLCGR”, the “soluble on expression in E. coli” value is recorded as “soluble”. The same measure for “MGSDKIHHHHHHMNEIVKLISKHNDVRTGAINLIVSENRMSPAALAALSSDLASRYAAPFYAGTDISQEIVAITEQKAKKLFNAEYVNISPISGSASLMAVVFALTSPGDKVGRVPPFFPGGGYPFNYEVFDRVSLPLPFDDEEWQLDLEATLELLEREKPKLVILGASIFTVPMPVREVADLVHSYGGIVAYDGSHSLGLIVGKQYQDPLNEGADILFGSTHKTFPGPQGGIIVTNSKELNDRIDIVSNFTPLNGPTMICNPHLARIASLGIVIDEVPWERYAEQVVKNSRAFANTLQAKGYEMRGQSTKKFSELSYCHQVLPKLDRQMGQGYRDKLKQHNIHVDGFMRVGTAEITRLGYVEADCTRISEIMAEIVSSNQDVIPSLRHEVVEMNANHQHIVM”: “not soluble”. With “MAHHHHHHMLTNLRFLELQKLLLKRFQIFKNEEITILKKDSMKTILNEWAEFLTKEQKGTNITHIPDEVLQNKKVADILRDDIECRWLVGRINVGNNQESPVGTNDVNSSCSAALARKGTALSKIDQLHFDEYPNLFHYEYPQFPYNYYDKKKMENFYSLLKFPYNDILKISKMIKRDVISPSGNAEEGEILQQGGKAQSEVLESTHVDVVNDDFMNYSSNSYVYAPSEMETSKENYHE”, the “soluble on expression in E. coli” value is “not soluble”.
